Experimental data taken from the RNAGym collection of RNA variant scans (doi:10.7554/elife.80360).

B1: CPEB3 Ribozyme (parent)
chain: GGGGGCCACAGCAGAAGCGUUCACGUCGCGGCCCCUGUCAGAUUCUGGUGAAUCUGCGAAUUCUGCUGU

Variants of: B1
Experiment: self-cleavage, relative activity (ratio to wild type); higher = more cleavage; co-transcriptional

Variant	self-cleavage
G4C U20C	0.0911
G4C U20G	0.072
G4C U21A	0.427
G4C U21C	0.215
G4C U21G	0.0719
G4C U26A	0.125
G4C U26G	0.217
G4C U36A	0.0958
G4C U36C	0.589
G4C U36G	0.481
G4C U38A	0.639
G4C U38G	0.152
G4C U43A	0.251
G4C U44G	0.265
G4C U46C	0.619
G4C U53A	0.316
G4C U53C	0.239
G4C U55A	0.261
G4C U55C	0.237
G4C U61C	0.169
G4C U61G	0.178
G4C U62C	0.213
G4C U62G	0.311
G4C U64A	0.457

Variant	self-cleavage
G4C U64C	0.426
G4C U67A	0.902
G4C U67C	0.824
G4C U67G	0.848
G4C U69A	0.877
G4C U69G	0.914
G4U A8U	0.737
G4U A10U	0.983
G4U A13C	0.336
G4U A13U	0.383
G4U A15U	0.272
G4U A16U	0.235
G4U A23G	0.502
G4U A40G	0.542
G4U A40U	0.313
G4U A42G	0.655
G4U A42U	0.526
G4U A51C	0.524
G4U A51G	0.692
G4U A51U	0.772
G4U A52C	0.519
G4U A52G	0.722
G4U A52U	0.677
G4U A59C	0.146

Variant	self-cleavage
G4U A59U	0.193
G4U A60C	0.171
G4U A60U	0.219
G4U C6A	0.0552
G4U C6G	0.0353
G4U C7U	0.233
G4U C9A	0.982
G4U C9G	0.974
G4U C12A	0.255
G4U C12G	0.182
G4U C12U	0.819
G4U C18G	0.0879
G4U C18U	0.257
G4U C22A	0.065
G4U C22U	0.0611
G4U C24A	0.122
G4U C24G	0.0638
G4U C27A	0.11
G4U C27U	0.114
G4U C29A	0.0776
G4U C32A	0.135
G4U C32G	0.129
G4U C32U	0.436
G4U C33A	1

Variant	self-cleavage
G4U C33U	0.975
G4U C34A	0.167
G4U C34G	0.113
G4U C34U	0.361
G4U C35A	0.114
G4U C35G	0.101
G4U C35U	0.128
G4U C39A	0.322
G4U C45A	0.554
G4U C45G	0.587
G4U C45U	0.743
G4U C54A	0.289
G4U C54G	0.21
G4U C54U	0.709
G4U C57G	0.165
G4U C57U	0.211
G4U C63G	0.292
G4U C66A	0.468
G4U C66U	0.771
G4U G5U	0.0723
G4U G11A	0.571
G4U G11C	0.228
G4U G11U	0.492
G4U G14C	0.205

Variant	self-cleavage
G4U G14U	0.241
G4U G17A	0.114
G4U G19A	0.0808
G4U G19C	0.0957
G4U G19U	0.112
G4U G25A	0.101
G4U G25C	0.116
G4U G25U	0.0695
G4U G28C	0.0704
G4U G30C	0.108
G4U G30U	0.103
G4U G31C	0.0584
G4U G31U	0.126
G4U G37A	0.144
G4U G37C	0.169
G4U G41C	0.126
G4U G47A	0.804
G4U G47C	0.793
G4U G47U	0.873
G4U G48A	0.856
G4U G50A	0.752
G4U G56C	0.339
G4U G56U	0.559
G4U G58A	0.377

Variant	self-cleavage
G4U G58C	0.457
G4U G65A	0.521
G4U G68U	0.928
G4U U20A	0.121
G4U U20C	0.14
G4U U20G	0.0683
G4U U21A	0.654
G4U U21C	0.4
G4U U26G	0.3
G4U U36A	0.122
G4U U36C	0.651
G4U U36G	0.492
G4U U38A	0.73
G4U U38C	0.525
G4U U43A	0.455
G4U U43G	0.389
G4U U44C	0.552
G4U U44G	0.384
G4U U46A	0.746
G4U U46C	0.751
G4U U46G	0.803
G4U U49G	0.357
G4U U53A	0.412
G4U U53C	0.323

Variant	self-cleavage
G4U U53G	0.226
G4U U55A	0.496
G4U U55C	0.298
G4U U55G	0.203
G4U U61C	0.174
G4U U62C	0.369
G4U U62G	0.349
G4U U64A	0.535
G4U U64C	0.602
G4U U64G	0.589
G4U U67A	0.9
G4U U67C	0.946
G4U U69A	0.952
G5A A8C	0.953
G5A A8G	0.725
G5A A8U	0.894
G5A A10C	0.914
G5A A10G	0.915
G5A A10U	0.953
G5A A13C	0.637
G5A A15C	0.263
G5A A15U	0.355
G5A A16G	0.811
G5A A16U	0.639

Variant	self-cleavage
G5A A23U	0.931
G5A A40C	0.213
G5A A40G	0.866
G5A A42G	0.812
G5A A42U	0.71
G5A A51C	0.82
G5A A51G	0.849
G5A A51U	0.859
G5A A52C	0.837
G5A A52G	0.92
G5A A52U	0.891
G5A A59C	0.259
G5A A59G	0.753
G5A A60C	0.251
G5A A60G	0.515
G5A A60U	0.247
G5A C6A	0.103
G5A C6U	0.189
G5A C7A	0.134
G5A C7G	0.0847
G5A C7U	0.501
G5A C9A	1.01
G5A C12A	0.532
G5A C12G	0.488

Variant	self-cleavage
G5A C18G	0.0833
G5A C18U	0.483
G5A C22G	0.0902
G5A C22U	0.129
G5A C24A	0.341
G5A C24G	0.0961
G5A C24U	0.378
G5A C27A	0.141
G5A C27G	0.104
G5A C27U	0.201
G5A C29A	0.229
G5A C29U	0.303
G5A C32A	0.847
G5A C33A	0.296
G5A C33G	0.136
G5A C34G	0.155
G5A C35A	0.203
G5A C35G	0.134
G5A C35U	0.365
G5A C39A	0.533
G5A C39G	0.752
G5A C45A	0.832
G5A C45G	0.823
G5A C45U	0.913

Variant	self-cleavage
G5A C54A	0.546
G5A C54G	0.394
G5A C54U	0.893
G5A C57A	0.224
G5A C57G	0.234
G5A C57U	0.304
G5A C63A	0.427
G5A C63U	0.915
G5A C66A	0.727
G5A C66G	0.826
G5A G11C	0.578
G5A G11U	0.778
G5A G14A	0.325
G5A G14C	0.159
G5A G14U	0.365
G5A G17U	0.152
G5A G19A	0.12
G5A G19C	0.0992
G5A G25A	0.114
G5A G25C	0.137
G5A G25U	0.0968
G5A G28A	0.1
G5A G28C	0.124
G5A G28U	0.144

Variant	self-cleavage
G5A G30U	0.125
G5A G31A	0.158
G5A G31C	0.118
G5A G31U	0.221
G5A G37C	0.171
G5A G37U	0.165
G5A G41A	0.512
G5A G41C	0.359
G5A G41U	0.488
G5A G47A	0.964
G5A G47C	0.914
G5A G48A	0.918
G5A G50A	0.941
G5A G50C	0.902
G5A G56A	0.759
G5A G56C	0.407
G5A G56U	0.772
G5A G58A	0.723
G5A G58C	0.758
G5A G58U	0.906
G5A G65A	0.812
G5A G65C	0.532
G5A G68A	0.976
G5A G68C	0.947

Variant	self-cleavage
G5A G68U	0.948
G5A U20C	0.109
G5A U20G	0.111
G5A U21A	0.837
G5A U21C	0.56
G5A U26A	0.498
G5A U26C	0.853
G5A U26G	0.611
G5A U36A	0.146
G5A U38A	0.816
G5A U38C	0.749
G5A U38G	0.129
G5A U43A	0.721
G5A U43C	0.77
G5A U43G	0.578
G5A U44A	0.655
G5A U44C	0.858
G5A U44G	0.631
G5A U46C	0.945
G5A U49A	0.926
G5A U53G	0.335
G5A U55A	0.69
G5A U55C	0.403
G5A U61A	0.351

Variant	self-cleavage
G5A U61C	0.299
G5A U61G	0.468
G5A U62C	0.423
G5A U64A	0.71
G5A U64C	0.676
G5A U64G	0.729
G5A U67C	0.963
G5A U67G	0.957
G5A U69A	0.994
G5A U69C	1.05
G5A U69G	1.03
G5C A8C	0.199
G5C A8G	0.242
G5C A8U	0.156
G5C A10C	0.176
G5C A10G	0.289
G5C A23C	0.228
G5C A23G	0.144
G5C A23U	0.333
G5C A40C	0.213
G5C A40G	0.171
G5C A42C	0.207
G5C A42U	0.265
G5C A51C	0.152

Variant	self-cleavage
G5C A51G	0.228
G5C A51U	0.269
G5C A52C	0.259
G5C A52G	0.287
G5C A52U	0.123
G5C A59G	0.229
G5C C6G	0.0983
G5C C7A	0.684
G5C C7G	0.293
G5C C9A	0.386
G5C C9G	0.487
G5C C9U	0.412
G5C C12A	0.141
G5C C18A	0.097
G5C C18G	0.12
G5C C18U	0.148
G5C C22G	0.0735
G5C C22U	0.0752
G5C C24G	0.0631
G5C C24U	0.112
G5C C27U	0.138
G5C C29A	0.144
